Results: publication PMC9482650, “Quantitative fragmentomics allow affinity mapping of interactomes” (Nature Communications, 2022)

B1: SBF1, O95248 (peptide)
chain: DRIQSCLSDA
B2: PTGIR, P43119 (peptide)
chain: AEASVACSLC
B3: NECTIN1, Q15223 (peptide)
chain: SFISKKEWYV
B4: SLCO1A2, P46721 (peptide)
chain: LKDDELKTKL

Molecular target: HTRA2, O43464
Test: holdup assay
Set-up: key: below the threshold = too weak to quantify, mostly under pKd 3.1 to 4
Conditions: plain residues with an end cap or a label only (N-terminal biotin on a linker: ado-ado)

Sequence of HTRA2, O43464 (O43464 355-458): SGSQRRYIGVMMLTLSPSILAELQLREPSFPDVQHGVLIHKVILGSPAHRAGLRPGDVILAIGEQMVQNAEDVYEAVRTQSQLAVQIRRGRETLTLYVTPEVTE

Row | Binder | pKd
1 | B1 | below the threshold
2 | B2 | 3.78
3 | B3 | 4.2
4 | B4 | below the threshold

Molecular target: T1, RHPN1, Q8TCX5
T1 sequence (Q8TCX5 508-602, limits assumed, looked up): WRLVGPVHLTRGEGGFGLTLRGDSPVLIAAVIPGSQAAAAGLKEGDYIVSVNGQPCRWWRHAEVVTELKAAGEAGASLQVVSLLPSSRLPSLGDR
Test: holdup assay
Set-up: key: below the threshold = too weak to quantify, mostly under pKd 3.1 to 4
Conditions: plain residues with an end cap or a label only (N-terminal biotin on a linker: ado-ado)

Row | Binder | pKd
5 | B1 | below the threshold
6 | B2 | below the threshold
7 | B3 | below the threshold
8 | B4 | 3.82

Molecular target: TJP2_1, Q9UDY2
Test: holdup assay
Set-up: key: below the threshold = too weak to quantify, mostly under pKd 3.1 to 4
Conditions: plain residues with an end cap or a label only (N-terminal biotin on a linker: ado-ado)

Sequence of TJP2_1, Q9UDY2 (Q9UDY2 24-128): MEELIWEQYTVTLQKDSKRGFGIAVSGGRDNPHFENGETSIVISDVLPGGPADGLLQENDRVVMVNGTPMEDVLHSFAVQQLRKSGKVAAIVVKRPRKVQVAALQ

Row | Binder | pKd
9 | B1 | below the threshold
10 | B2 | below the threshold
11 | B3 | 4
12 | B4 | below the threshold

Molecular target: T2, SNTG2, Q9NY99
T2 sequence (Q9NY99 68-166, limits assumed, looked up): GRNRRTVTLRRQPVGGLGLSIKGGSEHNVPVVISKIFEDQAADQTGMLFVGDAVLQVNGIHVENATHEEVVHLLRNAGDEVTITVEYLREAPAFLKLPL
Test: holdup assay
Set-up: key: below the threshold = too weak to quantify, mostly under pKd 3.1 to 4
Conditions: plain residues with an end cap or a label only (N-terminal biotin on a linker: ado-ado)

Row | Binder | pKd
13 | B1 | below the threshold
14 | B2 | below the threshold
15 | B3 | 3.49
16 | B4 | below the threshold

Molecular target: LNX1_1, Q8TBB1
Test: holdup assay
Set-up: key: below the threshold = too weak to quantify, mostly under pKd 3.1 to 4
Conditions: plain residues with an end cap or a label only (N-terminal biotin on a linker: ado-ado)

Sequence of LNX1_1, Q8TBB1 (Q8TBB1 261-371): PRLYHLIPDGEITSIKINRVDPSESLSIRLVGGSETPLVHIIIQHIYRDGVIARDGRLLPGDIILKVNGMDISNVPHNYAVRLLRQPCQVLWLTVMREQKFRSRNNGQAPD

Row | Binder | pKd
17 | B1 | 3.62
18 | B2 | below the threshold
19 | B3 | below the threshold
20 | B4 | 3.72

Molecular target: FRMPD3, Q5JV73
Test: holdup assay
Set-up: key: below the threshold = too weak to quantify, mostly under pKd 3.1 to 4
Conditions: plain residues with an end cap or a label only (N-terminal biotin on a linker: ado-ado)

Sequence of FRMPD3, Q5JV73 (Q5JV73 12-100): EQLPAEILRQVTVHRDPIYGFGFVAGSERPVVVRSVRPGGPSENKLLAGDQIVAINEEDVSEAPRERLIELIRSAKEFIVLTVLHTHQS

Row | Binder | pKd
21 | B1 | below the threshold
22 | B2 | below the threshold
23 | B3 | 3.94
24 | B4 | below the threshold

Molecular target: DLG1_2, Q12959
Test: holdup assay
Set-up: key: below the threshold = too weak to quantify, mostly under pKd 3.1 to 4
Conditions: plain residues with an end cap or a label only (N-terminal biotin on a linker: ado-ado)

Sequence of DLG1_2, Q12959 (Q12959 314-412): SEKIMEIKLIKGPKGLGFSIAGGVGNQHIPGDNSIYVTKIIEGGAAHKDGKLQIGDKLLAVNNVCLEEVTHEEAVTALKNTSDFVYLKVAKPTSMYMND

Row | Binder | pKd
25 | B1 | below the threshold
26 | B2 | below the threshold
27 | B3 | 3.77
28 | B4 | below the threshold

Molecular target: T3, LIN7C, Q9NUP9
T3 sequence (Q9NUP9 88-185, limits assumed, looked up): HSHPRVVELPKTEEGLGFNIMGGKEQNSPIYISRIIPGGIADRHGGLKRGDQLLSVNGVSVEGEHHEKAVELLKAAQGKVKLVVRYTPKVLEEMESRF
Test: holdup assay
Set-up: key: below the threshold = too weak to quantify, mostly under pKd 3.1 to 4
Conditions: plain residues with an end cap or a label only (N-terminal biotin on a linker: ado-ado)

Row | Binder | pKd
29 | B1 | 3.84
30 | B2 | below the threshold
31 | B3 | below the threshold
32 | B4 | below the threshold

Molecular target: DLG4_2, P78352
Test: holdup assay
Set-up: key: below the threshold = too weak to quantify, mostly under pKd 3.1 to 4
Conditions: plain residues with an end cap or a label only (N-terminal biotin on a linker: ado-ado)

Sequence of DLG4_2, P78352 (P78352 155-259): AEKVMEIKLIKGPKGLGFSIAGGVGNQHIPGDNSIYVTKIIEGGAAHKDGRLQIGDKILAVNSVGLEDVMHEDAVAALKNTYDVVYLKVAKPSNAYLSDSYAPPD

Row | Binder | pKd
33 | B1 | below the threshold
34 | B2 | below the threshold
35 | B3 | 3.73
36 | B4 | below the threshold

Molecular target: T4, SYNJ2BP, P57105
T4 sequence (P57105 8-110, limits assumed, looked up): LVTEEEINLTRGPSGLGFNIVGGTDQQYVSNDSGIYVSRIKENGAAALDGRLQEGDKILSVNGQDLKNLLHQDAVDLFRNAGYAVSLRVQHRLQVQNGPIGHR
Test: holdup assay
Set-up: key: below the threshold = too weak to quantify, mostly under pKd 3.1 to 4
Conditions: plain residues with an end cap or a label only (N-terminal biotin on a linker: ado-ado)

Row | Binder | pKd
37 | B1 | below the threshold
38 | B2 | below the threshold
39 | B3 | below the threshold
40 | B4 | below the threshold

Molecular target: T5, SHANK1, Q9Y566
T5 sequence (Q9Y566 658-767, limits assumed, looked up): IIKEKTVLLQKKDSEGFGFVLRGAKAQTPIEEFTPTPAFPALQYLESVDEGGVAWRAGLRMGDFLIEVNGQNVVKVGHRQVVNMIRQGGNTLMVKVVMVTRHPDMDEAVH
Test: holdup assay
Set-up: key: below the threshold = too weak to quantify, mostly under pKd 3.1 to 4
Conditions: plain residues with an end cap or a label only (N-terminal biotin on a linker: ado-ado)

Row | Binder | pKd
41 | B1 | below the threshold
42 | B2 | 3.65
43 | B3 | below the threshold
44 | B4 | 5.62

Molecular target: MAGI3_2, Q5TCQ9
Test: holdup assay
Set-up: key: below the threshold = too weak to quantify, mostly under pKd 3.1 to 4
Conditions: plain residues with an end cap or a label only (N-terminal biotin on a linker: ado-ado)

Sequence of MAGI3_2, Q5TCQ9 (Q5TCQ9 398-503): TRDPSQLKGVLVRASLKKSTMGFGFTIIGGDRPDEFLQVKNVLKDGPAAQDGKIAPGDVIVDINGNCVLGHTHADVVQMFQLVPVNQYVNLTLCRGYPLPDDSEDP

Row | Binder | pKd
45 | B1 | below the threshold
46 | B2 | below the threshold
47 | B3 | 5.55
48 | B4 | below the threshold

Molecular target: PDZRN4_1, Q6ZMN7
Test: holdup assay
Set-up: key: below the threshold = too weak to quantify, mostly under pKd 3.1 to 4
Conditions: plain residues with an end cap or a label only (N-terminal biotin on a linker: ado-ado)

Sequence of PDZRN4_1, Q6ZMN7 (Q6ZMN7 213-318): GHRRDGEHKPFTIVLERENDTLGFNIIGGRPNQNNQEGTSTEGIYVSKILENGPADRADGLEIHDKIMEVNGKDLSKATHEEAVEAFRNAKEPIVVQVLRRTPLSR

Row | Binder | pKd
49 | B1 | below the threshold
50 | B2 | below the threshold
51 | B3 | below the threshold
52 | B4 | below the threshold

Molecular target: FRMPD2_3, Q68DX3
Test: holdup assay
Set-up: key: below the threshold = too weak to quantify, mostly under pKd 3.1 to 4
Conditions: plain residues with an end cap or a label only (N-terminal biotin on a linker: ado-ado)

Sequence of FRMPD2_3, Q68DX3 (Q68DX3 1073-1166): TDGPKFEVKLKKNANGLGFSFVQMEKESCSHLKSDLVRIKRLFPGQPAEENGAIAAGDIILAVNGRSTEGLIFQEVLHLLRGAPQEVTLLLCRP

Row | Binder | pKd
53 | B1 | below the threshold
54 | B2 | below the threshold
55 | B3 | 4.31
56 | B4 | below the threshold

Molecular target: Inadl_10, Q8NI35
Test: holdup assay
Set-up: key: below the threshold = too weak to quantify, mostly under pKd 3.1 to 4
Conditions: plain residues with an end cap or a label only (N-terminal biotin on a linker: ado-ado)

Sequence of Inadl_10, Q8NI35 (Q8NI35 1673-1763): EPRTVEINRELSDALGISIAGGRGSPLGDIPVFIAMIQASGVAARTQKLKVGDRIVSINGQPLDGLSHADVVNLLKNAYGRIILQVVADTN

Row | Binder | pKd
57 | B1 | below the threshold
58 | B2 | below the threshold
59 | B3 | below the threshold
60 | B4 | below the threshold

Molecular target: T6, LRRC7, Q96NW7
T6 sequence (Q96NW7 1440-1537, limits assumed, looked up): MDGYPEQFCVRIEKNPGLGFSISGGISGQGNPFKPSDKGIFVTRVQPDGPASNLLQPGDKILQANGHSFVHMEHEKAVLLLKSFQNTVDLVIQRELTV
Test: holdup assay
Set-up: key: below the threshold = too weak to quantify, mostly under pKd 3.1 to 4
Conditions: plain residues with an end cap or a label only (N-terminal biotin on a linker: ado-ado)

Row | Binder | pKd
61 | B1 | below the threshold
62 | B2 | below the threshold
63 | B3 | below the threshold
64 | B4 | below the threshold

Molecular target: FRMPD4, Q14CM0
Test: holdup assay
Set-up: key: below the threshold = too weak to quantify, mostly under pKd 3.1 to 4
Conditions: plain residues with an end cap or a label only (N-terminal biotin on a linker: ado-ado)

Sequence of FRMPD4, Q14CM0 (Q14CM0 67-160): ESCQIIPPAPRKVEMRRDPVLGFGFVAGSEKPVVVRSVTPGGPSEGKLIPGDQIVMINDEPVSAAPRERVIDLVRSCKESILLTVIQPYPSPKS

Row | Binder | pKd
65 | B1 | below the threshold
66 | B2 | below the threshold
67 | B3 | 3.87
68 | B4 | 4.17

Molecular target: T7, MPDZ_12, O75970
T7 sequence (O75970 1857-1958, limits assumed, looked up): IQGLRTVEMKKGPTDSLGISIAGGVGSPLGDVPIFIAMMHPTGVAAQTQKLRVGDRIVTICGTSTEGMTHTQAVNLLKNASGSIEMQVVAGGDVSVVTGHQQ
Test: holdup assay
Set-up: key: below the threshold = too weak to quantify, mostly under pKd 3.1 to 4
Conditions: plain residues with an end cap or a label only (N-terminal biotin on a linker: ado-ado)

Row | Binder | pKd
69 | B1 | 3.49
70 | B2 | 3.48
71 | B3 | below the threshold
72 | B4 | below the threshold

Molecular target: SCRIB_2, Q14160
Test: holdup assay
Set-up: key: below the threshold = too weak to quantify, mostly under pKd 3.1 to 4
Conditions: plain residues with an end cap or a label only (N-terminal biotin on a linker: ado-ado)

Sequence of SCRIB_2, Q14160 (Q14160 857-960): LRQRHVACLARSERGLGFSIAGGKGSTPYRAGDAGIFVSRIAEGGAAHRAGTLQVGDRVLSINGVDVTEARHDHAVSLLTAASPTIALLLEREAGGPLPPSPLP

Row | Binder | pKd
73 | B1 | below the threshold
74 | B2 | below the threshold
75 | B3 | below the threshold
76 | B4 | below the threshold

Molecular target: IL16_3, Q14005
Test: holdup assay
Set-up: key: below the threshold = too weak to quantify, mostly under pKd 3.1 to 4
Conditions: plain residues with an end cap or a label only (N-terminal biotin on a linker: ado-ado)

Sequence of IL16_3, Q14005 (Q14005 1107-1207): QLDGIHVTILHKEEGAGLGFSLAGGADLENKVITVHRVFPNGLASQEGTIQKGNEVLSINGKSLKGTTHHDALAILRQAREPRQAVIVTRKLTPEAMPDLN

Row | Binder | pKd
77 | B1 | below the threshold
78 | B2 | below the threshold
79 | B3 | below the threshold
80 | B4 | below the threshold

Molecular target: PICK1, Q9NRD5
Test: holdup assay
Set-up: key: below the threshold = too weak to quantify, mostly under pKd 3.1 to 4
Conditions: plain residues with an end cap or a label only (N-terminal biotin on a linker: ado-ado)

Sequence of PICK1, Q9NRD5 (Q9NRD5 17-115): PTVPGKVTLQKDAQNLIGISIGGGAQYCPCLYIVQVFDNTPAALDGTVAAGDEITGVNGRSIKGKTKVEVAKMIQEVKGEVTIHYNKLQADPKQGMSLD

Row | Binder | pKd
81 | B1 | below the threshold
82 | B2 | below the threshold
83 | B3 | 4.24
84 | B4 | below the threshold

Molecular target: MAGI1_1, Q96QZ7
Test: holdup assay
Set-up: key: below the threshold = too weak to quantify, mostly under pKd 3.1 to 4
Conditions: plain residues with an end cap or a label only (N-terminal biotin on a linker: ado-ado)

Sequence of MAGI1_1, Q96QZ7 (Q96QZ7 1-106): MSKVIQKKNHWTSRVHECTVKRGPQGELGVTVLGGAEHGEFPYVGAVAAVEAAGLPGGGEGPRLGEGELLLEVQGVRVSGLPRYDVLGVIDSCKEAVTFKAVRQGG

Row | Binder | pKd
85 | B1 | below the threshold
86 | B2 | below the threshold
87 | B3 | below the threshold
88 | B4 | below the threshold

Molecular target: T8, TJP3_3, O95049
T8 sequence (O95049 375-456, limits assumed, looked up): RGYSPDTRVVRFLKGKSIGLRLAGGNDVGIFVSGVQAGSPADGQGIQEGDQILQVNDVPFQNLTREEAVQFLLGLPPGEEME
Test: holdup assay
Set-up: key: below the threshold = too weak to quantify, mostly under pKd 3.1 to 4
Conditions: plain residues with an end cap or a label only (N-terminal biotin on a linker: ado-ado)

Row | Binder | pKd
89 | B1 | below the threshold
90 | B2 | below the threshold
91 | B3 | 4.1
92 | B4 | below the threshold

Molecular target: Inadl_8, Q8NI35
Test: holdup assay
Set-up: key: below the threshold = too weak to quantify, mostly under pKd 3.1 to 4
Conditions: plain residues with an end cap or a label only (N-terminal biotin on a linker: ado-ado)

Sequence of Inadl_8, Q8NI35 (Q8NI35 1425-1530): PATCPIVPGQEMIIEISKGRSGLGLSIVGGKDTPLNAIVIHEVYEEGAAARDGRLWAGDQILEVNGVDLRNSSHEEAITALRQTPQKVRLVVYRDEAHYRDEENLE

Row | Binder | pKd
93 | B1 | below the threshold
94 | B2 | 3.77
95 | B3 | 3.66
96 | B4 | below the threshold

Molecular target: NHERF4_1, Q86UT5-2
Test: holdup assay
Set-up: key: below the threshold = too weak to quantify, mostly under pKd 3.1 to 4
Conditions: plain residues with an end cap or a label only (N-terminal biotin on a linker: ado-ado)

Sequence of NHERF4_1, Q86UT5-2 (Q86UT5 other isoform, or with tags, fused parts or gaps): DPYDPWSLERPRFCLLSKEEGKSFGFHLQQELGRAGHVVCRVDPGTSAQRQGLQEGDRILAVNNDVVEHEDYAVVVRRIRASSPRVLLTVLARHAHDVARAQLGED

Row | Binder | pKd
97 | B1 | below the threshold
98 | B2 | 4.54
99 | B3 | below the threshold
100 | B4 | 3.91

Molecular target: T9, DFNB31_1, Q9P202
T9 sequence (Q9P202 135-233, limits assumed, looked up): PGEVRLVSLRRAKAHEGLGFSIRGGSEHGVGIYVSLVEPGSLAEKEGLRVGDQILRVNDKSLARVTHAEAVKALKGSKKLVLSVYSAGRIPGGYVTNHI
Test: holdup assay
Set-up: key: below the threshold = too weak to quantify, mostly under pKd 3.1 to 4
Conditions: plain residues with an end cap or a label only (N-terminal biotin on a linker: ado-ado)

Row | Binder | pKd
101 | B1 | below the threshold
102 | B2 | below the threshold
103 | B3 | below the threshold
104 | B4 | below the threshold

Molecular target: FRMPD2_1, Q68DX3
Test: holdup assay
Set-up: key: below the threshold = too weak to quantify, mostly under pKd 3.1 to 4
Conditions: plain residues with an end cap or a label only (N-terminal biotin on a linker: ado-ado)

Sequence of FRMPD2_1, Q68DX3 (Q68DX3 770-861): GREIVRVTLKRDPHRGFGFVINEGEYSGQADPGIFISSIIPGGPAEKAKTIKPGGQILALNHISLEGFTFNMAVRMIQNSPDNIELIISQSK

Row | Binder | pKd
105 | B1 | below the threshold
106 | B2 | below the threshold
107 | B3 | 4.22
108 | B4 | below the threshold

Molecular target: Inadl_5, Q8NI35
Test: holdup assay
Set-up: key: below the threshold = too weak to quantify, mostly under pKd 3.1 to 4
Conditions: plain residues with an end cap or a label only (N-terminal biotin on a linker: ado-ado)

Sequence of Inadl_5, Q8NI35 (Q8NI35 673-780): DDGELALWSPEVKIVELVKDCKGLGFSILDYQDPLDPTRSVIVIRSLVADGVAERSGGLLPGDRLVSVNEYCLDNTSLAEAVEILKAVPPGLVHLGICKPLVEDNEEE

Row | Binder | pKd
109 | B1 | below the threshold
110 | B2 | below the threshold
111 | B3 | 4.82
112 | B4 | below the threshold
